Source: patent publication US20220177587A1, “METHODS AND USES OF VARIANT CD80 FUSION PROTEINS AND RELATED CONSTRUCTS” (Alpine Immune Sciences, Inc., priority 2018, published 2022)
Substitutions are numbered along the chain they refer to. Names and notes keep the numbering of the source.

Legend:
CD28 [1] = molecular target: T1, CD28 (Homo sapiens, UniProt P10747); assay: Flow binding to Jurkat/IL2 reporter cells (CD28); design: host or cells: Jurkat cells expressing an IL-2-luciferase reporter; conditions: 33.3 nM
Experimental: (§1) Binding of selected immunomodulatory fusion proteins to cognate binding partners was assessed. […] Cells were sorted in a Bio-Rad S3 Cell Sorter (Bio-Rad Corp., USA) to >98% purity. Jurkat/IL2 reporter cells, which endogenously express CD28, were used to detect binding to CD28.
(§2) For staining and analysis by flow cytometry, 100,000 cells of appropriate transfected cells were plated in 96-well round bottom plates. Cells were spun down and resuspended in staining buffer (phosphate buffered saline (PBS), 1% bovine serum albumin (BSA), and 0.1% sodium azide) for 20 minutes to block non-specific binding. […] Primary staining was performed on ice for 45 minutes, before washing cells in staining buffer twice. Phycoerythrin (PE)-conjugated anti-human Fc (Jackson ImmunoResearch, USA) was diluted 1:150, added to cells and incubated another 30 minutes on ice. Cells were then washed twice with 150 μL/well stain buffer, fixed in 2% formaldehyde/PBS, and analyzed on Intellicyt flow cytometer (Intellicyt Corp., USA). PE Mean Fluorescence Intensity (MFI) was calculated for each cell type with FlowJo Version 10 software (FlowJo LLC, USA).
(§3) Binding assays were carried out to assess the specificity and affinity of multivalent proteins to cell-expressed CTLA-4, CD28, and PD-L1 counter structures.
(§4) The EC50 for binding also was determined.

huPD-L1 = huPD-L1 (Homo sapiens, UniProt Q9NZQ7); assay: Flow binding to CHO cells stably expressing PD-L1; design: huCTLA4 and huPD-L1, full-length mammalian surface expression constructs were generated; expressed in transfected cells; host or cells: CHO cells, lentiviral transduction, sorted to >98% purity; conditions: CHO cells stably expressing PD-L1
Experimental: as §1, §2, §3, §4

CD28 [2] = molecular target: T1, CD28; assay: Jurkat/IL2 + CHO/OKT3 +/- PD-L1 reporter assay: PD-L1-dependent CD28 costimulation; type: cell-based; design: host or cells: Jurkat cells expressing an IL-2-luciferase reporter; conditions: Jurkat/IL2 + CHO/OKT3/PD-L1
Experimental: Jurkat cells were then plated at 50 μL/well for a total of 100,000 cells per well.
To each well, 25 μL of test protein was added to the Jurkat cells. […] The Jurkat cells with test or control proteins were incubated for 15 minutes at room temperature. CHO-derived artificial antigen presenting cells (aAPC) displaying transduced cell surface anti-CD3 single chain Fv (OKT3) (i.e., no PD-L1), or OKT3 and PD-L1 (i.e., +PD-L1), were brought to 0.8×10^6 cells/mL, and 25 μL of cells were added to each well, bringing the final volume of each well to 100 μL. […] Jurkat cells and CHO cells were incubated for 5 hours at 37 degrees Celsius in a humidified 5% CO2 incubation chamber. Plates were then removed from the incubator and acclimated to room temperature for 15 minutes. 100 μL of a cell lysis and luciferase substrate solution (BioGlo luciferase reagent, Promega) were added to each well and the plates were incubated on an orbital shaker for 10 minutes. Luminescence was measured with a 1 second per well integration time using a BioTek Cytation luminometer, and a relative luminescence value (RLU) was determined for each test sample.

huCTLA4 = huCTLA4 (Homo sapiens, UniProt P16410); assay: Flow binding to CHO cells stably expressing CTLA4; design: huCTLA4 and huPD-L1, full-length mammalian surface expression constructs were generated; expressed in transfected cells; host or cells: CHO cells, lentiviral transduction, sorted to >98% purity; conditions: CHO cells stably expressing CTLA4
Experimental: as §1, §2, §3, §4

[3] = Table E16, consensus variants, Jurkats (CD28)
[4] = Table E23, CD80 IgV-Fc (inert) at 33.3 nM

Sequence of huPD-L1 (Q9NZQ7 19-290): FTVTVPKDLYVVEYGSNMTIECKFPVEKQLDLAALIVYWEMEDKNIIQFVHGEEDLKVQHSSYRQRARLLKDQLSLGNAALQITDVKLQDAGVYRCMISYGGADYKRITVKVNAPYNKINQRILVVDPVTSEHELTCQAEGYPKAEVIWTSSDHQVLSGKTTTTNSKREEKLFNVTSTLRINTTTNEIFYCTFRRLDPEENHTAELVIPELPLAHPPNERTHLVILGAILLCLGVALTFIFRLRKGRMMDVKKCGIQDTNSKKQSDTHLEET
Sequence of huCTLA4 (P16410 36-223): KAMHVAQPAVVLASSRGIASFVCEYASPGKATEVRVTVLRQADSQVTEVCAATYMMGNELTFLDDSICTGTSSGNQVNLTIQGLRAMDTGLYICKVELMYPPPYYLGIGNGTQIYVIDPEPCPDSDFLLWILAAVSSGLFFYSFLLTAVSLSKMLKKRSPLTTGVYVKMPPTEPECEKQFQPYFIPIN

B1: E35D/M47V/N48I/L85Q (protein)
chain: VIHVTKEVKEVATLSCGHNVSVEELAQTRIYWQKDKKMVLTMMSGDVTIWPEYKNRTIFDITNNLSIVILALRPSDEGTYECVVQKYEKDAFKREHLAEVTLSVKAD
CD28 MFI at 33.3 nM (CD28 [1]; Table E4, Jurkat cells (CD28)): 692

B2: T13R/E35D/M47LN68M (protein)
chain: B1 chain with T13R, V47L, T48N, V68M, Q85L
CD28 MFI at 33.3 nM (CD28 [1]; Table E11, Jurkats (CD28)): 15.6
PD-L1 MFI at 33.3 nM (huPD-L1; Table E11, 33.3 nM): 19969

B3: E35D/M47V/N48K/L85M (protein)
chain: B1 chain with T48K, Q85M
CD28 MFI at 33.3 nM (CD28 [1]; Table E10, Jurkats (CD28)): 413
PD-L1 MFI at 33.3 nM (huPD-L1; Table E10, 33.3 nM): 5660
Relative Luciferase Units (RLU), CD80 Cone 5.0 nM (CD28 [2]; Table E12, 5.0 nM): 2116 RLU

B4: E35D/N48K/V68M/K89N (protein)
chain: B1 chain with V47M, T48K, V68M, Q85L, K89N
CD28 MFI at 33.3 nM (CD28 [1]; Table E19, Jurkats (CD28)): 1534
PD-L1 MFI at 33.3 nM (huPD-L1; Table E19, 33.3 nM): 17425

B5: A26E/V68M/A71G/D90G (protein)
chain: B1 chain with A26E, D35E, V47M, T48N, V68M, A71G, Q85L, D90G
PD-L1 MFI at 33.3 nM (huPD-L1; Table E20, 33.3 nM): 3195
Relative Luciferase Units (RLU), CD80 Conc 5.0 nM (CD28 [2]; Table E22, CD80 Conc 5.0 nM): 590 RLU
CTLA4 MFI at 33.3 nM (huCTLA4; Table E20, 33.3 nM): 8666

B6: E35D/M47L/V68M/A71G (protein)
chain: B1 chain with V47L, T48N, V68M, A71G, Q85L
PD-L1 MFI at 33.3 nM (huPD-L1; Table E20, 33.3 nM): 27872
Relative Luciferase Units (RLU), CD80 Conc 5.0 nM (CD28 [2]; Table E22, CD80 Conc 5.0 nM): 745 RLU
CTLA4 MFI at 33.3 nM (huCTLA4; Table E20, 33.3 nM): 24656

B7: E35D/L97R (protein)
chain: B1 chain with V47M, T48N, Q85L, L97R
CD28 MFI at 33.3 nM (CD28 [1]; Table E10, Jurkats (CD28)): 44.6
PD-L1 MFI at 33.3 nM (huPD-L1; Table E10, 33.3 nM): 2614
Relative Luciferase Units (RLU), CD80 Cone 5.0 nM (CD28 [2]; Table E12, 5.0 nM): 914 RLU

B8: E35D/N48K/L72V (protein)
chain: B1 chain with V47M, T48K, L72V, Q85L
CD28 MFI at 33.3 nM (CD28 [1]; Table E10, Jurkats (CD28)): 582
PD-L1 MFI at 33.3 nM (huPD-L1; Table E10, 33.3 nM): 3031
Relative Luciferase Units (RLU), CD80 Cone 5.0 nM (CD28 [2]; Table E12, 5.0 nM): 1731 RLU

B9: E35D/D46E/M47L/V68M/T79M/L85M (protein, UniProt P33681 35-288, looked up, variant E35D D46E M47L V68M T79M L85M)
T-lymphocyte activation …: VIHVTKEVKEVATLSCGHNVSVEELAQTRIYWQKDKKMVLTMMSGELNIWPEYKNRTIFDITNNLSIMILALRPSDEGMYECVVMKYEKDAFKREHLAEVTLSVKADFPTPSISDFEIPTSNIRRIICSTSGGFPEPHLSWLENGEELNAINTTVSQDPETELYAVSSKLDFNMTTNHSFMCLIKYGHLRVNQTFNWNTTKQEHFPDNLLPSWAITLISVNGIFVICCLTYCFAPRCRERRRNERLRRESVRPV
CD28 MFI at 33.3 nM (CD28 [1]; Table E11, Jurkats (CD28)): 403
PD-L1 MFI at 33.3 nM (huPD-L1; Table E11, 33.3 nM): 8641
Relative Luciferase Units (RLU), CD80 Cone 5.0 nM (CD28 [2]; Table E13, 5.0 nM): 1137 RLU

B10: H18Y/E35D/V68M/L85M/R94Q (protein, UniProt P33681 35-288, looked up, variant H18Y E35D V68M L85M R94Q)
T-lymphocyte activation …: B9 T-lymphocyte activation … with H18Y, E46D, L47M, M79T, R94Q
CD28 MFI at 33.3 nM (CD28 [1]; Table E11, Jurkats (CD28)): 14
CD28 MFI at 33.3 nM (CD28 [1]; [3]): 962
PD-L1 MFI at 33.3 nM (huPD-L1; Table E11, 33.3 nM): 14410
PD-L1 MFI at 33.3 nM (huPD-L1; Table E16, consensus variants, 33.3 nM): 9283
Relative Luciferase Units (RLU), CD80 Cone 5.0 nM (CD28 [2]; Table E13, 5.0 nM): 195 RLU
Relative Luciferase Units (RLU), CD80 Cone 5.0 nM (CD28 [2]; Table E17, consensus variants, 5.0 nM): 2215 RLU

B11: H18Y/E35D/M47I/V68M/Y87N (protein, UniProt P33681 35-288, looked up, variant H18Y E35D M47I V68M Y87N)
T-lymphocyte activation …: B9 T-lymphocyte activation … with H18Y, E46D, L47I, M79T, M85L, Y87N
modifications: Fc fusion
CD28 MFI at 33.3 nM (CD28 [1]; Table E11, Jurkats (CD28)): 4038
CD28 MFI at 33.3 nM (CD28 [1]; [3]): 1429

B12: E35D/M47L/V68M/E95V/L97Q (protein, UniProt P33681 35-288, looked up, variant E35D M47L V68M E95V L97Q)
T-lymphocyte activation …: B9 T-lymphocyte activation … with E46D, M79T, M85L, E95V, L97Q
modifications: Fc fusion
CD28 MFI at 33.3 nM (CD28 [1]; Table E11, Jurkats (CD28)): 14
PD-L1 MFI at 33.3 nM (huPD-L1; Table E11, 33.3 nM): 18600
Relative Luciferase Units (RLU), CD80 Cone 5.0 nM (CD28 [2]; Table E13, 5.0 nM): 1086 RLU

B13: E35D/M47V/N48K/V68M/K89N GS(G4S)3 (protein, UniProt P33681 35-288, looked up, variant E35D M47V N48K V68M K89N)
T-lymphocyte activation …: B9 T-lymphocyte activation … with E46D, L47V, N48K, M79T, M85L, K89N
modifications: GS(G4S)3 linker
CD28 MFI at 33.3 nM (CD28 [1]; Table E25, linker variants, Jurkats (CD28)): 2109
Relative Luciferase Units (RLU), CD80 Conc 5.0 nM (CD28 [2]; Table E26, linker variants, 5.0 nM): 1400 RLU

B14: H18V/A26P/E35D/M47V/V68L/A71G (protein, UniProt P33681 35-288, looked up, variant H18V A26P E35D M47V V68L A71G)
T-lymphocyte activation …: B9 T-lymphocyte activation … with H18V, A26P, E46D, L47V, M68L, A71G, M79T, M85L
PD-L1 MFI at 33.3 nM (huPD-L1; [4]): 55417
Relative Luciferase Units (RLU), CD80 Conc 5.0 nM (CD28 [2]; Table E24, 5.0 nM): 881 RLU
CTLA4 MFI at 33.3 nM (huCTLA4; [4]): 13669

B15: H18R/A26P/E35D/D46N/M47V/V68M/A71G/D90P (protein, UniProt P33681 35-288, looked up, variant H18R A26P E35D D46N M47V V68M A71G D90P)
T-lymphocyte activation …: B9 T-lymphocyte activation … with H18R, A26P, E46N, L47V, A71G, M79T, M85L, D90P
modifications: Fc fusion
PD-L1 MFI at 33.3 nM (huPD-L1; [4]): 29306
Relative Luciferase Units (RLU), CD80 Conc 5.0 nM (CD28 [2]; Table E24, 5.0 nM): 972 RLU
CTLA4 MFI at 33.3 nM (huCTLA4; [4]): 17327

B16: V22D/E24D/E35D/M47L/V68M (protein)
chain: VIHVTKEVKEVATLSCGHNVSDEDLAQTRIYWQKDKKMVLTMMSGDLNIWPEYKNRTIFDITNNLSIMILALRPSDEGTYECVVLKYEKDAFKREHLAEVTLSVKADFPTPSISDFETPTSNIRRIICSTSGGFPEPHLSWLENGEELNAINTTVSQDPETELYAVSSKLDFNMTTNHSFMCLIKYGHLRVNQTFNWNTTKQEHFPDN
modifications: CD80 v383 ECD
CD28 MFI at 33.3 nM (CD28 [1]; Table E11, Jurkats (CD28)): 1254
PD-L1 MFI at 33.3 nM (huPD-L1; Table E11, 33.3 nM): 15418
Relative Luciferase Units (RLU), CD80 Cone 5.0 nM (CD28 [2]; Table E13, 5.0 nM): 974 RLU
